# Molecular target: PCSK9 (UniProt Q8NBP7 31-692)
# Assay: bead retention
# PCSK9, sequence (Q8NBP7 31-692): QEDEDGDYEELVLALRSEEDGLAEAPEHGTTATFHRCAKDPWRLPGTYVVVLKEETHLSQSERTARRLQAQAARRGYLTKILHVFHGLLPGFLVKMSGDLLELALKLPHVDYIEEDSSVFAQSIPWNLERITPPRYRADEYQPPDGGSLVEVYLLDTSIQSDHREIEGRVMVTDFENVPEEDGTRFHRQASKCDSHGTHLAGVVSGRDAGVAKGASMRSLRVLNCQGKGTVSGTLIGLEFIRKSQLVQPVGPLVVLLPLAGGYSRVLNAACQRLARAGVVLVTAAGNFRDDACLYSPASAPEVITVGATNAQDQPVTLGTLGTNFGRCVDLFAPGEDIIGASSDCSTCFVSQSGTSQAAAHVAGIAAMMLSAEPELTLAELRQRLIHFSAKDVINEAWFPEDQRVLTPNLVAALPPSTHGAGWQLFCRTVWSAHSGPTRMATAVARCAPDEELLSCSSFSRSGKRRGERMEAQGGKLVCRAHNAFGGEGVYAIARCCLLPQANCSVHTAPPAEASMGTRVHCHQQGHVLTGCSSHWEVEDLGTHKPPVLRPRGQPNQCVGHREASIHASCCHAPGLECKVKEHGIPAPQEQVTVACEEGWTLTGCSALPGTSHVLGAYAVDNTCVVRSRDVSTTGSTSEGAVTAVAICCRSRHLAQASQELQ
row,Binder,binding result
1,"PCSK9A5-DNA (ssDNA, no side-chains) DNA: CGAATCAGATTGGACCAGCCACGTTACTGATTCTTCTACCGTTTTTGCCCCCGGCACCTTCTGGAGTCCAGATGTAGGTAG",no binding
2,"PCSK9A3-DNA (ssDNA, no side-chains) DNA: CGAATCAGATTGGACCAGTCTCTACAACCTCTTTCATGTCTTTAGCACTACTTATCCTGATCAGAGTCCAGATGTAGGTAG",no binding
3,"PCSK9A2-DNA (ssDNA, no side-chains) DNA: CGAATCAGATTGGACCAGCAACAATGATTCTTCTACCGTTTTTGCCCTCACCTTCTGCGCTGAGAGTCCAGATGTAGGTAG",no binding
4,"PCSK9A1-DNA (ssDNA, no side-chains) DNA: CGAATCAGATTGGACCAGCCACTATATTCTCTCTCCTACCGTTTGCCTTTGCATCACCTTCTGGAGTCCAGATGTAGGTAG",no binding
5,"PCSK9A6-DNA (ssDNA, no side-chains) DNA: CGAATCAGATTGGACCAGTTTCAACCTCTTCTGCCTTCTCCACGGCTCCTTCTGCGTTGTTCCGAGTCCAGATGTAGGTAG",no binding
6,"PCSK9A7-DNA (ssDNA, no side-chains) DNA: CGAATCAGATTGGACCAGTCTTCCCTATTCCTCTACCGTTTGTTCTCTTACTTTCACCTTCTGGAGTCCAGATGTAGGTAG",no binding
7,"PCSK9A4-DNA (ssDNA, no side-chains) DNA: CGAATCAGATTGGACCAGCCCCAATGCTTTTCGTTTCTATCACGTCTTTAGCGGTACCTATTCGAGTCCAGATGTAGGTAG",no binding

# — article PMC5866196
